Measured values from patent publication US20230279077A1.

Key:
[1] = molecular target: HSV-1 glycoprotein D-Fc fusion protein (HSV-1) (UniProt Q69091); assay: SPR, G-Fc captured on anti-human IgG
[2] = molecular target: HSV-1 glycoprotein D-Fc fusion protein (HSV-1) (UniProt Q69091); assay: phage ELISA, glycoprotein D coated, anti-M13 HRP; well C10
[3] = molecular target: HSV-1 glycoprotein D-Fc fusion protein (HSV-1) (UniProt Q69091); assay: SPR, G-Fc captured on anti-human IgG; high end tied to G75 by Table 6
[4] = molecular target: HSV-1 glycoprotein D-Fc fusion protein (HSV-1) (UniProt Q69091); assay: SPR Biacore T200, single cycle kinetics, G-Fc captured on anti-human IgG, 1:1 fit
[5] = molecular target: HSV-1 glycoprotein D-Fc fusion protein (HSV-1) (UniProt Q69091); assay: SPR Biacore T200, single cycle kinetics, G-Fc captured on anti-human IgG, 1:1 fit, second run

B1: 3-G-75_M13R (VHH, not shown: small tags and cut ends)
VHH: QVKLEESGGGVVQDGGSLRLSCAAIEQFFTTNAMAWFRQAPGKERELVAATDWSGQSTSYADSVKGRFTISRDTAKNVMYLQMNILHTEDTAVYYCARAPGRVLLTSDLESYTIWGQGTQVTVSS
**Q.** For B1, which Kd [1] is on record?
**A.** Its Kd is 4 nM.

**Q.** What about the A450 nm [2] of the same binder?
**A.** Its A450 nm is 1.13.

**Q.** What about the Kd [3] of the same binder?
**A.** Its Kd is 4 nM.

**Q.** And the Kd [4]?
**A.** Its Kd is 4.02 nM.

**Q.** What about the koff [4] of the same binder?
**A.** The koff was 0.0139 s⁻¹.

**Q.** What about the kon [4] of the same binder?
**A.** The kon was 3.47e+06 M⁻¹ s⁻¹.

**Q.** What about the Kd [5] of the same binder?
**A.** Its Kd is 3.86 nM.

**Q.** What about the koff [5] of the same binder?
**A.** The koff was 0.0152 s⁻¹.

**Q.** What about the kon [5] of the same binder?
**A.** Its kon is 3.93e+06 M⁻¹ s⁻¹.
